# Data reported in the RNAGym collection of RNA variant scans (doi:10.1021/acssynbio.7b00057).
# B1: Pistol ribozyme (parent)
# chain: GGGUCGUUGUUCCAUAAUCGCGUGGAUAUGGCACGCAAGUUUCUACCGGGCACCGUAAAUGUCCGACUGGAGCCGUUCGGGCGGCUAUAAACAGACCUCAGGCCCGAAGCGUGGCGGCACCUGCCGCCGGUGGUAAAAAAGAUCGGAAGAGCACACGUCU
# Variants of: B1
# Assay: aptazyme ON/OFF ratio, guanine; higher = stronger switching; co-transcriptional cleavage with and without guanine
row,Variant,aptazyme ON/OFF ratio
1,U7A U10A U11G C12G C13A,1.06
2,U7A U10A U11G C12G C13G,1.11
3,U7A U10A U11G C12G C13U,1.16
4,U7A U10G U11A C12U C13U,1.07
5,U7A U10G U11A C12U C13A,1.29
6,U7A U10G U11A C12U C13G,1.13
7,U7A U10C C13U,1.13
8,U7A U10C C13A,1.06
9,U7A U10C C13G,1.08
10,U7A U10G C12A,1.16
11,U7A U10G C12U,1.29
12,U7A U10G C12G,1.36
13,U7A U10A U11A C12A C13G,1.14
14,U7A U10A U11A C12A C13U,1.21
15,U7A U10A U11A C12A C13A,1.23
16,U7A U10G,1.56
17,U7A U10A,1.11
18,U7A U10C,4.51
19,U7A U10A U11A C12G C13U,1.25
20,U7A U10A U11A C12G C13A,1.07
21,U7A U10A U11A C12G C13G,1.46

row,Variant,aptazyme ON/OFF ratio
1,U7A U10C U11G C12A C13G,1.23
2,U7A U10C U11G C12A C13U,1.26
3,U7A U10C U11G C12A C13A,1.28
4,U7A U10A U11G C12A C13A,1.17
5,U7A U10A U11G C12A C13U,1.17
6,U7A U10A U11G C12A C13G,1.39
7,U7A U10G C12U C13A,1.41
8,U7A U10G C12U C13G,1.12
9,U7A U10G C12U C13U,1.36
10,U7A U10A U11G C13A,1.31
11,U7A U10A U11G C13G,1.3
12,U7A U10A U11G C13U,1.19
13,U7A U10G C12G C13G,1.08
14,U7A U10G C12G C13A,1.08
15,U7A U10G C12G C13U,1.2
16,U7A U10C C12U C13A,1.16
17,U7A U10C C12U C13U,1.33
18,U7A U10C C12U C13G,1.09
19,U7A U10A U11C C12U,1.03
20,U7A U10A U11C C12G,1.1
21,U7A U10A U11C C12A,1.08

row,Variant,aptazyme ON/OFF ratio
1,U7A U10C U11A C12A C13U,1.11
2,U7A U10C U11A C12A C13A,1.21
3,U7A U10C U11A C12A C13G,1.23
4,U7A U10C U11G C12G C13U,1.18
5,U7A U10C U11G C12G C13A,1.24
6,U7A U10C U11G C12G C13G,1.31
7,U7A U10A C13G,1.05
8,U7A U10A C13A,1.07
9,U7A U10A C13U,1.07
10,U7A U10C U11A C12G C13U,1.29
11,U7A U10C U11A C12G C13A,1.22
12,U7A U10C U11A C12G C13G,1.26
13,U7A U10A U11C C12G C13G,1.17
14,U7A U10A U11C C12G C13U,1.1
15,U7A U10A U11C C12G C13A,1.08
16,U7A U10C U11G,1.25
17,U7A U10C U11A,1.2
18,U7A U10C U11C,1.03
19,U7A U10A U11A C12U,1.2
20,U7A U10A U11A C12A,1.11
21,U7A U10A U11A C12G,1.18

row,Variant,aptazyme ON/OFF ratio
1,U7A U10A U11C C12A C13U,1.11
2,U7A U10A U11C C12A C13G,1.03
3,U7A U10A U11C C12A C13A,1.1
4,U7A U10C U11A C12A,1.23
5,U7A U10C U11A C12G,1.26
6,U7A U10C U11A C12U,1.3
7,U7A U8G U11G C13A,1.26
8,U7A U8G U11G C13U,1.31
9,U7A U8G U11G C13G,1.24
10,U7A U10C U11C C12G,1.14
11,U7A U10C U11C C12A,1.1
12,U7A U10C U11C C12U,1.04
13,U7A U10C U11C C12U C13G,1.08
14,U7A U10C U11C C12U C13U,1.07
15,U7A U10C U11C C12U C13A,1.03
16,U7A U8G U11G C12U C13G,1.29
17,U7A U8G U11G C12U C13U,1.22
18,U7A U8G U11G C12U C13A,1.63
19,U7A U10A C12A C13G,1.1
20,U7A U10A C12A C13U,1.39
21,U7A U10A C12A C13A,1.27
